Assay [1] concerns the target CREB-binding protein (CBP) (human (endogenous in HEp-2)) (UniProt Q92793). Kind of assay: co-IP.
Assay [2] addresses p300 (human (endogenous in HEp-2)) (UniProt Q09472). Kind of assay: co-IP.

Several values for one entry are separate records, joined by “and”; a condition that tells them apart may be missing. Equal entries are not always repeated.

Sequence of UniProt Q09472 (Q09472 whole entry): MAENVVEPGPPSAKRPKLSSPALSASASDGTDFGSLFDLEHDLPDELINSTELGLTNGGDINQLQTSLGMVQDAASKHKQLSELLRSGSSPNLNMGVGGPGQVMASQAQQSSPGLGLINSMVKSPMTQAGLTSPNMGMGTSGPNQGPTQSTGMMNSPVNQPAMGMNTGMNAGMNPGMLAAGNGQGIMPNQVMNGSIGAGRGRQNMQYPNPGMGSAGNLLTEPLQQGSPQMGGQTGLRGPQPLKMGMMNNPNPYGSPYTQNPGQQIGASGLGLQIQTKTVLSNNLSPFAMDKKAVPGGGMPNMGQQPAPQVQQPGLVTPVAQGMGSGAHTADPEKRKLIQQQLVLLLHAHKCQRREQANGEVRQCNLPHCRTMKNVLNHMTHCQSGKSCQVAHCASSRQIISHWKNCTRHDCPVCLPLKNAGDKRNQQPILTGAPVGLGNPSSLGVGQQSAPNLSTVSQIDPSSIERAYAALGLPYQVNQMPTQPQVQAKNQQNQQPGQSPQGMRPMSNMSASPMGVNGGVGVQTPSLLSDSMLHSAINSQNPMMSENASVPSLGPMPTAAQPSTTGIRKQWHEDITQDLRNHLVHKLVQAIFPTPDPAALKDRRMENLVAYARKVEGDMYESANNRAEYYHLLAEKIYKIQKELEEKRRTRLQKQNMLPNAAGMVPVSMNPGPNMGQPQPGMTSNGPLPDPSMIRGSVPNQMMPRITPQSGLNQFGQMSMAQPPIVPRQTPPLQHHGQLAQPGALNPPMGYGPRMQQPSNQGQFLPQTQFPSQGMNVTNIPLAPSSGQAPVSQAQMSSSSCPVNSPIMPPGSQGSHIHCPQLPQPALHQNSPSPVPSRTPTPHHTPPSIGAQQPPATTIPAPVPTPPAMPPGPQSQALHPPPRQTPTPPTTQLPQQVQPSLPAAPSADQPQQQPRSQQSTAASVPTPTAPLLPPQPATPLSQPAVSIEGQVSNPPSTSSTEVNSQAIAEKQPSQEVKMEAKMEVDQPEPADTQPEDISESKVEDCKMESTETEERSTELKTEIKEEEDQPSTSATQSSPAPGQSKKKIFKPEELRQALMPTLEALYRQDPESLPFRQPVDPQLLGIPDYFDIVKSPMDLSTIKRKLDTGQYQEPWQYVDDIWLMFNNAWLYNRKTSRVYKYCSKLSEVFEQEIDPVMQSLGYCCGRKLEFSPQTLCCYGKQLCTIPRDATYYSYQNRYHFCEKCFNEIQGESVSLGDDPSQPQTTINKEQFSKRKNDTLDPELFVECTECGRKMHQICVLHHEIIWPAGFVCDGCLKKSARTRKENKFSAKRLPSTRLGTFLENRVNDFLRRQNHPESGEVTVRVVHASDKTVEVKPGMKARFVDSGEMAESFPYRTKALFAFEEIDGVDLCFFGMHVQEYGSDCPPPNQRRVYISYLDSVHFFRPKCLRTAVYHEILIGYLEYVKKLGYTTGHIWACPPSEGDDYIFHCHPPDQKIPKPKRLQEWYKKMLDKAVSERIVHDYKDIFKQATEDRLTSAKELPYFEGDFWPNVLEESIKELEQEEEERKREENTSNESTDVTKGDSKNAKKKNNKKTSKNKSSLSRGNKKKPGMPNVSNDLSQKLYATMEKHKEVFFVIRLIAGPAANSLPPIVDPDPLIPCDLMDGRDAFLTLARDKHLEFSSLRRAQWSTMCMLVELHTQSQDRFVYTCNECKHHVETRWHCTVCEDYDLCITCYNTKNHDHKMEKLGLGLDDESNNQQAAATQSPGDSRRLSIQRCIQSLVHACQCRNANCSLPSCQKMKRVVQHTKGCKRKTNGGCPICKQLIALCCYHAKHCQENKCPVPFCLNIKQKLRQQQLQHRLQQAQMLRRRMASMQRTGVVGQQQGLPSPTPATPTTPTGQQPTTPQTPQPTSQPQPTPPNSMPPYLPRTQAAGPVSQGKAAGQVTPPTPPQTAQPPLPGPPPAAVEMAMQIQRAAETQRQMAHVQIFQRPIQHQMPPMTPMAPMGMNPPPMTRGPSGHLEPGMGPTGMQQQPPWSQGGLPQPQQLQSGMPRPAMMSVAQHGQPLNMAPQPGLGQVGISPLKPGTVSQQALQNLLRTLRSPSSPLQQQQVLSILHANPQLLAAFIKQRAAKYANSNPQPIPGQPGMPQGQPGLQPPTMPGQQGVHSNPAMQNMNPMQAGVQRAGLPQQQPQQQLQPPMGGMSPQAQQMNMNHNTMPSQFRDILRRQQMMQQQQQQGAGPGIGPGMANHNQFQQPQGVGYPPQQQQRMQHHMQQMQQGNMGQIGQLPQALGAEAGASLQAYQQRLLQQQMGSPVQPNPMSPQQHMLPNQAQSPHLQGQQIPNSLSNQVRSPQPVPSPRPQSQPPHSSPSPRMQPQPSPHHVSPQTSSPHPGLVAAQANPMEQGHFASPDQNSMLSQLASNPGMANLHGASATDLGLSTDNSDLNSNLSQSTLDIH
Sequence of UniProt Q92793 (Q92793 whole entry): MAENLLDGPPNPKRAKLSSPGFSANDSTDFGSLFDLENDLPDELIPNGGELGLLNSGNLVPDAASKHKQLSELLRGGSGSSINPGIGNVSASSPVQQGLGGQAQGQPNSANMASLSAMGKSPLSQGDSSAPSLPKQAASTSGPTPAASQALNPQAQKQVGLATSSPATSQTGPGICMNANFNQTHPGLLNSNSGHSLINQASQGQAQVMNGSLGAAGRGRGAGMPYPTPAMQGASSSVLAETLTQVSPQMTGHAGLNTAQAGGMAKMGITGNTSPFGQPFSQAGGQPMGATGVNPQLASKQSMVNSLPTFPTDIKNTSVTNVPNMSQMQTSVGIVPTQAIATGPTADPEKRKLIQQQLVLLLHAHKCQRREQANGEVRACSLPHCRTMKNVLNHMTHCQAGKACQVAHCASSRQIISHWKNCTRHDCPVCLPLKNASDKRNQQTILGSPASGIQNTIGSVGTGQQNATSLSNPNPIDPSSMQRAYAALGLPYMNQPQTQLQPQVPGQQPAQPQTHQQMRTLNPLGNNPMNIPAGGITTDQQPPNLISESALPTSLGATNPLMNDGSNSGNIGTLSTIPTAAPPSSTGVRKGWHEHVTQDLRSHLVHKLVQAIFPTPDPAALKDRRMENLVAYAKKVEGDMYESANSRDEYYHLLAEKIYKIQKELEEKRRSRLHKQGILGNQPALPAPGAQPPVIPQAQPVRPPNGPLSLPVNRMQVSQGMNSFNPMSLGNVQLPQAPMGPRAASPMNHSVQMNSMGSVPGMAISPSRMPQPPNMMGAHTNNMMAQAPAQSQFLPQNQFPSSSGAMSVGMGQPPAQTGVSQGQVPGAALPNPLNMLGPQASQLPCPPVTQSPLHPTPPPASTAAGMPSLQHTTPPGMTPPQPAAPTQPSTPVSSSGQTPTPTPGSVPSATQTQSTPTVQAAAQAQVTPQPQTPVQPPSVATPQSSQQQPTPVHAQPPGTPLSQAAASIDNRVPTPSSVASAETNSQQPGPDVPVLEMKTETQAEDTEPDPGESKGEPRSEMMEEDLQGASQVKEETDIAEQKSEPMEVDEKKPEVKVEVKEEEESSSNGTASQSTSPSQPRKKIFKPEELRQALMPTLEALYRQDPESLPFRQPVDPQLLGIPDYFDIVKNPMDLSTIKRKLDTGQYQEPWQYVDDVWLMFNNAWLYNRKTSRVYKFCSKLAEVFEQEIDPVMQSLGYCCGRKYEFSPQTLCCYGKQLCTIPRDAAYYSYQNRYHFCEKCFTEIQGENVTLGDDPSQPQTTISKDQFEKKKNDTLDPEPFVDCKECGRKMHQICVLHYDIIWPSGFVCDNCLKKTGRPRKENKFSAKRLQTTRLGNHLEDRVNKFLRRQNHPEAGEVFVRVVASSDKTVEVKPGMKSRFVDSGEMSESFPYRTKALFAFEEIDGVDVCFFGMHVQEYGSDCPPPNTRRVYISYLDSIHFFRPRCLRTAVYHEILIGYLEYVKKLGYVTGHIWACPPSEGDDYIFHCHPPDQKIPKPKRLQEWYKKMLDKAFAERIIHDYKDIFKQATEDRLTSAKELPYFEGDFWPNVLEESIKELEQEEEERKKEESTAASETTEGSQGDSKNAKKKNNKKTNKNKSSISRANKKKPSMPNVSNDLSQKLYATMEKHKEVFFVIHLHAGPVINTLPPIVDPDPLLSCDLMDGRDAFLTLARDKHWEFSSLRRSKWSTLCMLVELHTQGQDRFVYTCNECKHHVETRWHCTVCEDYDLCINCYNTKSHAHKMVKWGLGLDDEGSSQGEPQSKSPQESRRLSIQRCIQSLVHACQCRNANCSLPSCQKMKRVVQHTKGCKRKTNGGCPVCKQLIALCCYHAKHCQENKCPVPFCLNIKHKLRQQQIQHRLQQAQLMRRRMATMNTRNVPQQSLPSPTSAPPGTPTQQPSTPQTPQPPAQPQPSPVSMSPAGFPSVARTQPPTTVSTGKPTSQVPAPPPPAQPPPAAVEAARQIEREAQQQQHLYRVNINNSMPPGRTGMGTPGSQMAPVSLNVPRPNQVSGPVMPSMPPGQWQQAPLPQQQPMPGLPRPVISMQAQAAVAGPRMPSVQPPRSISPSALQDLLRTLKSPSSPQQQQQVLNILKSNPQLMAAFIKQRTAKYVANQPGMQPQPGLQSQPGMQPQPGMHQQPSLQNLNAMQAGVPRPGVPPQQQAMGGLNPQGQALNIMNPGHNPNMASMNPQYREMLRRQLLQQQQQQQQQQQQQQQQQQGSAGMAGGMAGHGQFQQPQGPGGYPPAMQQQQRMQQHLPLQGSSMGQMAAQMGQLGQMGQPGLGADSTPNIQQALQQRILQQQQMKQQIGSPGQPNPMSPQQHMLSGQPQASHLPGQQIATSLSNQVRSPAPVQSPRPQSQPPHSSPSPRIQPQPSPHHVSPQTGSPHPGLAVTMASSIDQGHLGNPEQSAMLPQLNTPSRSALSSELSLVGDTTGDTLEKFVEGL

On to “hypophosphorylated RNA polymerase II (pol IIa), largest subunit (from UniProt P24928 1-1970) (natural protein)”, for which the percent of pol IIa recovered in the immunoprecipitate in assay [1] is 10% and 20%; in assay [2] it was 10% and 20%.

For the origin of these results see PMC2185550.
